Assay results from paper PMC4202109.

Target: Fluorescently labeled ATS (intracellular segment) of PfEMP1 variant PF08_0141, full-length segment (P. falciparum)
Assay: fluorescence polarisation

**Q.** With “PFE1605w PHIST domain (residues 122–335) (domain or fragment)” as the substance, how does the Kd read?
**A.** The Kd was 5 µM.
